From patent publication US20210277100A1 (SCHOLAR ROCK, published 2021)

Assays:
[1] = target: T1, TGFβ3 growth factor (UniProt P10600 301-412); experiment: BLI, OctetRed 384 (FIG. 4)
T1 construct: domain: growth factor
T1 sequence (looked up): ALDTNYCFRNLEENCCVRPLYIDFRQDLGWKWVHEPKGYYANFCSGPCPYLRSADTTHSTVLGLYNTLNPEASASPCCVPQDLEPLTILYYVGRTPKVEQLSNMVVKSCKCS
Description: (§1) The binding affinities of the proTGFβ1-GARP complex-selective antibody candidates to proTGFβ1-GARP complexes were measured by biolayer interferometry on an OctetRed 384 (Fortebio, Menlo Park, Calif.). Strepavidin biosensors (Fortebio, Cat. No. 18-5020) were loaded with biotinylated sGARP-proTGFβ1 complex at 20 μg/ml in sodium acetate buffer, pH 5, washed in the same buffer and transferred to wells containing 10 μg/mL proTGFβ1-GARP complex-selective antibody candidates in the same buffer. The dissociation constant was obtained by non-linear fitting of the responses to a steady state algorithm using Octet software (Table 4). Similar affinities were obtained by kinetic fitting.
(§2) To ascertain binding specificity, 4B1C1 and 4B16B9 were screened as above for binding to TGFβ1, TGFβ2, TGFβ3, proTGFβ1-LTBP1, proTGFβ1-LTBP3 and proTGFβ1-LRRC33. As described above, antibodies were tested at 10 μg/ml and antigens at 20 μg/ml and tested under the following conditions.
(§3) proTGFβ1-GARP complex-selective antibody candidates were measured by biolayer interferometry on an OctetRed 384 (Fortebio, Menlo Park, Calif.) for selectivity for proTGFβ1-GARP complex over other protein complexes (FIG. 4).

[2] = target: T2, TGFβ2 growth factor (UniProt P61812 303-414); experiment: BLI, OctetRed 384 (FIG. 4)
T2 construct: domain: growth factor
T2 sequence (looked up): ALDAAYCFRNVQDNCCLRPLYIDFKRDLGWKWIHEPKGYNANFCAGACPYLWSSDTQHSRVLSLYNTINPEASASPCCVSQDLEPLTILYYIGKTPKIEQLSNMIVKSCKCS
Description: as §1, §2, §3

[3] = target: T3, TGFβ1 growth factor (human, UniProt P01137 279-390); experiment: BLI, OctetRed 384, antigen loaded on biosensor
T3 construct: domain: growth factor; also called TGFb1 (soluble form)
T3 sequence (P01137 279-390 limits assumed): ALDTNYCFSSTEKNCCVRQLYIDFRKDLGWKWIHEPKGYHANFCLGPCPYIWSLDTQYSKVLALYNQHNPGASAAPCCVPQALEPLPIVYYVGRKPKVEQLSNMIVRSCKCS
Description: as §1, §2

[4] = target: T4, rGARP-proTGFβ1; experiment: biolayer interferometry (OctetRed 384)
T4 construct: not given
Description: as §1, §3

[5] = target: T5, hGARP-TGFβ1-LAP (human); experiment: biolayer interferometry (OctetRed 384)
T5 construct: not given
T5 sequence (Q14392 20-627, chain 1 of 2): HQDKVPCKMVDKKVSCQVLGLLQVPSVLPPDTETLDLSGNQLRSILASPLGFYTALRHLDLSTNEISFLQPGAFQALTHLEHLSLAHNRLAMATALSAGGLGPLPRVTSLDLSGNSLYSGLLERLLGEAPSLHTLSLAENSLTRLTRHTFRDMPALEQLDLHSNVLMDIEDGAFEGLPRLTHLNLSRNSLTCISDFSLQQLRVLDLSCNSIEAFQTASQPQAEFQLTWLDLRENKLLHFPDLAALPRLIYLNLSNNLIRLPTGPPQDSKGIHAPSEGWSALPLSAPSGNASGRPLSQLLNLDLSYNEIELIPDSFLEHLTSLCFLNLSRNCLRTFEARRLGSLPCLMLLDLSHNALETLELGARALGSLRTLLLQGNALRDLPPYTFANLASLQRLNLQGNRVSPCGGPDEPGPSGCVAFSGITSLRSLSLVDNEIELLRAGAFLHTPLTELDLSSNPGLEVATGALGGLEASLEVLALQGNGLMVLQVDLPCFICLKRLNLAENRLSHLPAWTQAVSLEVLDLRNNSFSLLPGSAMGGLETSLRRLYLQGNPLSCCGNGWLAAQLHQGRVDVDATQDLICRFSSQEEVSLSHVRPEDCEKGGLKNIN
T5 sequence (P01137 30-390, chain 2 of 2, further chain): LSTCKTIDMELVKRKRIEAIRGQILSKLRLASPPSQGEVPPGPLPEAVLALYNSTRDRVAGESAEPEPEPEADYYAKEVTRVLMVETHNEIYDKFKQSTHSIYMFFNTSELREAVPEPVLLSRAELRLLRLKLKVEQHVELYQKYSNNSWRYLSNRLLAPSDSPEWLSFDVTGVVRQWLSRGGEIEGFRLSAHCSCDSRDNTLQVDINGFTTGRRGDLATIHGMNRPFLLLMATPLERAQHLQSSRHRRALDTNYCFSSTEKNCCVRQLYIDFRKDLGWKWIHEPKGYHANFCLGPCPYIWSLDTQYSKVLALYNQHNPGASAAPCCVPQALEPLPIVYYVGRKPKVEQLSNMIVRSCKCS
Description: as §1, §3

[6] = target: human proTGFβ1 in complex with GARP expressed on transfected HEK293 or Sw480 cells (human, UniProt Q14392 20-662; P01137 30-390); experiment: cell-based or functional assay
Chain of human proTGFβ1 in complex with GARP expressed on transfected HEK293 or Sw480 cells (Q14392 20-662, chain 1 of 2): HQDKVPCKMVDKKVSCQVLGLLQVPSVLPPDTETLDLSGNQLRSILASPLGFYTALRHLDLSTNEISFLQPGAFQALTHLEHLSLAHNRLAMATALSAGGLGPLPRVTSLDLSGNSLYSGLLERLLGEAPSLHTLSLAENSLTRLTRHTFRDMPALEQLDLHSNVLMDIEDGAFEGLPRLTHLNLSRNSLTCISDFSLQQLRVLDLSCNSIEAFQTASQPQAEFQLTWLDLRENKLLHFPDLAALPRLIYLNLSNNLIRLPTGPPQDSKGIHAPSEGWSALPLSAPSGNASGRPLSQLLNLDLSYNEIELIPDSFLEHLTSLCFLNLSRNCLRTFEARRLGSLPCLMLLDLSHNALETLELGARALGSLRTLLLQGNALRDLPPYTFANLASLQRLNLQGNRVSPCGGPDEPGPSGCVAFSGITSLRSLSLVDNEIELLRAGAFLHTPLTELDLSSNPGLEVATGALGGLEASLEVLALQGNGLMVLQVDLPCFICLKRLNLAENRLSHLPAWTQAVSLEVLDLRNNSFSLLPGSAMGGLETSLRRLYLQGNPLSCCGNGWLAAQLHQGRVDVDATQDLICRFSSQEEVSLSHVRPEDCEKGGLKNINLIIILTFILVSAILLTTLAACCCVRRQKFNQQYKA
Chain of human proTGFβ1 in complex with GARP expressed on transfected HEK293 or Sw480 cells (P01137 30-390, chain 2 of 2): as the sequence (P01137 30-390, chain 2 of 2, further chain) above

[7] = target: T3, TGFβ1 growth factor; experiment: BLI, OctetRed 384 (FIG. 4)
Description: as §1, §2, §3

B1: 4B1C1 (antibody, human IgG4 S228P, kappa, V domains shown)
VH: EVQLVQSGGVVVQPGGSLRLSCAASGFTFDDYTMHWVRQAPGKGLEWVSLISWDGGSTYYADSVKGRFTISRDNSKNSLYLQMNSLRTEDTALYYCAKDADDSTFDIWGQGTMVTVSS
VL: ETTLTQSPATLSVSPGERVTLSCRASQSVSRNLAWYQQKPGQPPKLLIYWASTRESGVPDRFSGSGSGTDFTLTISSLQAEDVAVYYCQQYYSVPYTFGQGTKLEIKR
notes: Fully human, from a phage display scFv; also called 4B1Cl; proTGFβ1-GARP complex-selective antibody candidate
B1: no binding [1]; no binding [2]; no binding [3]. For the same binder, the Kd [4] was 0.187 nM, the Kd [5] was 11.3 nM and the “IC50 of inhibition of TGFβ1 activation, TMLC reporter cells” value [6] was 0.178 nM.

B2: 4B16B9 (antibody, human IgG4 S228P, lambda, V domains shown)
VH: QMQLVQSGAEVKKPGSSVKVSCKASGGTFSSYAISWVRQAPGQGLEWMGGIIPMFGTTNYAQKFQGRVTIIADESTSTAYMELRSLRSDDTAVYYCARDREWEPAYGMDVWGQGTTVTVSS
VL: QSALTQPASVSGSPGQSITISCIGTSSDVGGYNYVSWYQQHPGKAPKLMIYDVSNRPSGVSNRFSGSKSGNTASLTISGLQAEDEAMYYCSAYTVSSTWVFGGGTKVTVLG
notes: Fully human, from a phage display scFv; also called proTGFβ1-GARP complex-selective antibody candidate
B2: no binding [1]; no binding [2]; no binding [7]. The Kd [4] was 0.158 nM and the “IC50 of inhibition of TGFβ1 activation, TMLC reporter cells” value [6] was 1.9 nM.
